Measured values reported in US20190218304A1 (INNATE PHARMA, published 2019).
Positions count from the first letter of the chain named.

T1: CD39 mutant 19 (human, UniProt P49961 1-510)
T1 construct: Expressed on transfected Hek-293T cells; also called M19
T1 chain: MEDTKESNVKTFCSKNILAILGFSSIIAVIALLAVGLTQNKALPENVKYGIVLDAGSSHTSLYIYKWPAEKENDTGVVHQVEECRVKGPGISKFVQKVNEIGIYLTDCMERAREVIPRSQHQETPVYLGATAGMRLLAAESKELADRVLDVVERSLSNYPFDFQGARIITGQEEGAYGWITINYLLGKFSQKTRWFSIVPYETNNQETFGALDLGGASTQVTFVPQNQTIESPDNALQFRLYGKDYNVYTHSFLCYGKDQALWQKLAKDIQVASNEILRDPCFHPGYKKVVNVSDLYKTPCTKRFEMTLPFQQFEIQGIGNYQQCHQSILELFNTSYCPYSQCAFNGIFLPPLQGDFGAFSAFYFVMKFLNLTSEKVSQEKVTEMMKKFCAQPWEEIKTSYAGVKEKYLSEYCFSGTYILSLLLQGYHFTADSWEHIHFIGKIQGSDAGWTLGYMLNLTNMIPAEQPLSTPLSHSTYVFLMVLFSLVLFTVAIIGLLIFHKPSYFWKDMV

T2: human CD39 expressed on cells (human, UniProt P49961 1-510)
T2 construct: On CHO transfectants, HEK-293T transfectants (wild type), Ramos lymphoma cells or monocyte-derived dendritic cells, as named under assay; also called huCD39; CHO-huCD39
T2 sequence: T1 chain with A138R, A139M, K142E

T3: CD39 mutant 5 (human, UniProt P49961 1-510)
T3 construct: Expressed on transfected Hek-293T cells; also called M5
T3 chain: T1 chain with Q96A, N99A, A138R, A139M, K142E, E143A, R147E

T4: CD39 mutant 15 (human, UniProt P49961 1-510)
T4 construct: Expressed on transfected Hek-293T cells; also called M15
T4 chain: T1 chain with K87A, E100A, D107A, A138R, A139M, K142E

T5: CD39 mutant 11 (human, UniProt P49961 1-510)
T5 construct: Expressed on transfected Hek-293T cells
T5 sequence: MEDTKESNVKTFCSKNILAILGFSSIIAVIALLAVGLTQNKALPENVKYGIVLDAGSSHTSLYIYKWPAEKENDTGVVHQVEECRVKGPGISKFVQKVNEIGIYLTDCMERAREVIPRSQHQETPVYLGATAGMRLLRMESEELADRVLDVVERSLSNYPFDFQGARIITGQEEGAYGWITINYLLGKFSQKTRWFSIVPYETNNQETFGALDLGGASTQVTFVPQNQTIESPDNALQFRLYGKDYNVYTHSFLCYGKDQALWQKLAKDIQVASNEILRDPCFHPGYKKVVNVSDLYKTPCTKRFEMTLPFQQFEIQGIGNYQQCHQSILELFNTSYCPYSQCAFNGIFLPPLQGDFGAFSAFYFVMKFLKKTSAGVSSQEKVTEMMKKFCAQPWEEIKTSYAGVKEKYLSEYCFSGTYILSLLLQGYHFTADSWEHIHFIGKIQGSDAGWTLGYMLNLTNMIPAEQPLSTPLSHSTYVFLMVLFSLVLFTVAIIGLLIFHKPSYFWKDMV

B1: antibody I-396 (antibody, V domains shown)
VH: EVQLQQSGAELVKPGASVKLSCIVSGFNIKDTYINWVKQRPEQGLEWIGRIDPANGNTKYDPKFQGKATMTSDTSSNTAYLHLSSLTSDDSAVYYCARWGYDDEEADYFDSWGQGTTLTVSS
VL: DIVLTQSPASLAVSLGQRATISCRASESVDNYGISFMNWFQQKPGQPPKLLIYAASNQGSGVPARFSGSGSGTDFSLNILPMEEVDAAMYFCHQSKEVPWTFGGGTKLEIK
notes: Purified from hybridoma supernatant with protein A for screening
B2: antibody I-399 (antibody, V domains shown)
VH: PVQLQQPGAEVVMPGASVKLSCKASGYTFTSFWMNWMRQRPGQGLEWIGEIDPSDFYTNSNQRFKGKATLTVDKSSSTAYMQLSSLTSEDSAVYFCARGDFGWYFDVWGTGTSVTVSS
VL: EIVLTQSPTTMTSSPGEKITFTCSASSSINSNYLHWYQQKPGFSPKLLIYRTSNLASGVPTRFSGSGSGTSYSLTIGTMEAEDVATYYCQQGSSLPRTFGGGTKLEIK
notes: as for B1
B3: antibody I-395 (antibody, V domains shown)
VH: EVQLQQSGPELVKPGASVRMSCKASGYTFTDYNMHWVKKNHGKGLEWIGYINPNNGGTTYNQKFKGKATLTVNTSSKTAYMELRSLTSEDSAVYYCTRGGTRFASWGQGTLVTVSA
VL: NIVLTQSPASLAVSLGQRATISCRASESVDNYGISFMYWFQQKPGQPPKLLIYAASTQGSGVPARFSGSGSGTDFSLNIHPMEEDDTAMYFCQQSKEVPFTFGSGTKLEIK
notes: as for B1

How the values were obtained:
CD39 mutant 19 [1] = target: T1, CD39 mutant 19; assay: flow cytometry on Hek-293T cells transfected with CD39 mutant 19 [panel M19]
[2] = target: T2, human CD39 expressed on cells; assay: flow cytometry on Hek-293T cells transfected with wild-type CD39 (unstained cells, US: 10,3) [panel WT]
CD39 mutant 5 [3] = target: T3, CD39 mutant 5; assay: flow cytometry on Hek-293T cells transfected with CD39 mutant 5 [panel M5]
CD39 mutant 15 [4] = target: T4, CD39 mutant 15; assay: flow cytometry on Hek-293T cells transfected with CD39 mutant 15 [panel M15]
CD39 mutant 11 = target: T5, CD39 mutant 11; assay: flow cytometry on transfected Hek-293T cells
Procedure: (§1) Mutants were transfected in Hek-293T cells, as shown in the table 1, using numbering of SEQ ID NO: 1. Dose-ranges of test antibodies (10-2.5-0.625-0.1563-0.0391-0.0098-0.0024-0.0006 μg/ml) are tested on the 20 generated mutants by flow cytometry.

CD39 mutant 5 [5] = target: T3, CD39 mutant 5; assay: flow cytometry on transfected Hek-293T cells
Procedure: as §1

CD39 mutant 19 [6] = target: T1, CD39 mutant 19; assay: flow cytometry on transfected Hek-293T cells
Procedure: as §1

CD39 mutant 15 [7] = target: T4, CD39 mutant 15; assay: flow cytometry on transfected Hek-293T cells
Procedure: as §1

Binder	binding result (CD39 mutant 19 [1])	Median : Comp-Alexa Fluor 647-A [2]	binding result (CD39 mutant 5 [3])	binding result (CD39 mutant 15 [4])	binding result (CD39 mutant 11)	binding result (CD39 mutant 5 [5])	binding result (CD39 mutant 19 [6])	binding result (CD39 mutant 15 [7])
B1	binds	4340	binds	no binding	–	–	–	–
B2	–	–	–	–	no binding (tested: 10 µg/ml (top of dose range))	binds	binds	binds
B3	no binding	4240	no binding	–	–	–	–	–
